Experimental data from IntAct's records for PubMed 35152348.

B1: Tyrosine-protein phosphatase non-receptor type 22 (Homo sapiens), Q9Y2R2-1 (parent)
chain: MDQREILQKFLDEAQSKKITKEEFANEFLKLKRQSTKYKADKTYPTTVAEKPKNIKKNRYKDILPYDYSRVELSLITSDEDSSYINANFIKGVYGPKAYIATQGPLSTTLLDFWRMIWEYSVLIIVMACMEYEMGKKKCERYWAEPGEMQLEFGPFSVSCEAEKRKSDYIIRTLKVKFNSETRTIYQFHYKNWPDHDVPSSIDPILELIWDVRCYQEDDSVPICIHCSAGCGRTGVICAIDYTWMLLKDGIIPENFSVFSLIREMRTQRPSLVQTQEQYELVYNAVLELFKRQMDVIRDKHSGTESQAKHCIPEKNHTLQADSYSPNLPKSTTKAAKMMNQQRTKMEIKESSSFDFRTSEISAKEELVLHPAKSSTSFDFLELNYSFDKNADTTMKWQTKAFPIVGEPLQKHQSLDLGSLLFEGCSNSKPVNAAGRYFNSKVPITRTKSTPFELIQQRETKEVDSKENFSYLESQPHDSCFVEMQAQKVMHVSSAELNYSLPYDSKHQIRNASNVKHHDSSALGVYSYIPLVENPYFSSWPPSGTSSKMSLDLPEKQDGTVFPSSLLPTSSTSLFSYYNSHDSLSLNSPTNISSLLNQESAVLATAPRIDDEIPPPLPVRTPESFIVVEEAGEFSPNVPKSLSSAVKVKIGTSLEWGGTSEPKKFDDSVILRPSKSVKLRSPKSELHQDRSSPPPPLPERTLESFFLADEDCMQAQSIETYSTSYPDTMENSTSSKQTLKTPGKSFTRSKSLKILRNMKKSICNSCPPNKPAESVQSNNSSSFLNFGFANRFSKPKGPRNPPPTWNI
B2: Proline-serine-threonine phosphatase-interacting protein 1 (Homo sapiens), O43586 (parent)
chain: MMPQLQFKDAFWCRDFTAHTGYEVLLQRLLDGRKMCKDMEELLRQRAQAEERYGKELVQIARKAGGQTEINSLRASFDSLKQQMENVGSSHIQLALTLREELRSLEEFRERQKEQRKKYEAVMDRVQKSKLSLYKKAMESKKTYEQKCRDADDAEQAFERISANGHQKQVEKSQNKARQCKDSATEAERVYRQSIAQLEKVRAEWEQEHRTTCEAFQLQEFDRLTILRNALWVHSNQLSMQCVKDDELYEEVRLTLEGCSIDADIDSFIQAKSTGTEPPAPVPYQNYYDREVTPLTSSPGIQPSCGMIKRFSGLLHGSPKTTSLAASAASTETLTPTPERNEGVYTAIAVQEIQGNPASPAQEYRALYDYTAQNPDELDLSAGDILEVILEGEDGWWTVERNGQRGFVPGSYLEKL
partner: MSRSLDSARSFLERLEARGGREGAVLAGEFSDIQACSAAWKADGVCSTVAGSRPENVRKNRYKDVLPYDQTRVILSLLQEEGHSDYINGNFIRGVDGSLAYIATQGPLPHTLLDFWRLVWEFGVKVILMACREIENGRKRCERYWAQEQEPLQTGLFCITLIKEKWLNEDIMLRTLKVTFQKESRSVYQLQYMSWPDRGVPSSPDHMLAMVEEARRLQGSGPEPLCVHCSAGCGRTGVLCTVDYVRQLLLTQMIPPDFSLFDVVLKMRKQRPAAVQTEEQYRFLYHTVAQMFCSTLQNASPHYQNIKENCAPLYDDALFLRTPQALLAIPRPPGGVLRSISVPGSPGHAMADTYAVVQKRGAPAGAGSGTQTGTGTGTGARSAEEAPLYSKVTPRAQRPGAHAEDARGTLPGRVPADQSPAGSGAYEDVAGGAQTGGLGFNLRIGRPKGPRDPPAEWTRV
B3: Proline-serine-threonine phosphatase-interacting protein 1 (Homo sapiens), O43586 (parent)
chain: B2 chain
partner: B1 chain
B4: Proline-serine-threonine phosphatase-interacting protein 1 (Homo sapiens), O43586 (parent)
chain: B2 chain
partner: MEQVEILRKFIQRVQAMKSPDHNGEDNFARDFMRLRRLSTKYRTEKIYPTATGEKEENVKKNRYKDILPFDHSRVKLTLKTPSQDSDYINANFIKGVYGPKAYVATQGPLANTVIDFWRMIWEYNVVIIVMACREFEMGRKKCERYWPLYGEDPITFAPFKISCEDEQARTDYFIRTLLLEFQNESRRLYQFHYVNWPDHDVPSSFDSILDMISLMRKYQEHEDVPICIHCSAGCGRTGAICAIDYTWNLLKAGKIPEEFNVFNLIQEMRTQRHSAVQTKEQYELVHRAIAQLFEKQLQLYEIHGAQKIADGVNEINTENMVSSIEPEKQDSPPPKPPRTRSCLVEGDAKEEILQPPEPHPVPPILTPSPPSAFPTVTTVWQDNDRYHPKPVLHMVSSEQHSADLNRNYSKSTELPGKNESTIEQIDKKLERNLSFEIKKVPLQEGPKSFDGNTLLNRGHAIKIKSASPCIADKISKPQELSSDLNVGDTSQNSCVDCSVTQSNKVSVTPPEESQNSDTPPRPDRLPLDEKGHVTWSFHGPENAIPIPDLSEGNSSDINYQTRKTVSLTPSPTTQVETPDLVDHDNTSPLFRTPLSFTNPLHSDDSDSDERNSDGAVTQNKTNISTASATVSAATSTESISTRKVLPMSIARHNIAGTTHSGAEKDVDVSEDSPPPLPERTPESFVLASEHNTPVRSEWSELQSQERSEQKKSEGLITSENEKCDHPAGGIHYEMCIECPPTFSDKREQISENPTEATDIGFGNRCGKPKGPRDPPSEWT

Variants of: B1
Details: with ppip1_human PSTPIP1, O43586

Row | Variant | effect of a mutation on the interaction
1 | W805A | decreasing interaction strength
2 | R799A | decreasing interaction strength

Variants of: B2
Details: with ptn18_human PTPN18, Q99952

Row | Variant | effect of a mutation on the interaction
3 | G258A | with no effect
4 | D246N | decreasing interaction strength
5 | Q219H | with no effect
6 | T274M | with no effect
7 | E250K | disrupting interaction strength
8 | E250Q | decreasing interaction strength
9 | D266N | with no effect
10 | W232A | disrupting interaction strength
11 | A230T | with no effect
12 | R228C | disrupting interaction strength
13 | E257K | disrupting interaction strength
14 | E257G | with no effect

Variants of: B3
Details: with PTPN22, Q9Y2R2-1

Row | Variant | effect of a mutation on the interaction
15 | Q219H | with no effect
16 | D289H | with no effect
17 | R228C | disrupting interaction strength
18 | T274M | with no effect
19 | D266N | with no effect
20 | V344I | with no effect
21 | E277D | with no effect
22 | R52Q | with no effect
23 | D384G | with no effect
24 | W232A | disrupting interaction strength
25 | R405C | with no effect
26 | G403R | with no effect
27 | G403E | with no effect
28 | V122I | with no effect
29 | T68M | with no effect
30 | A230T | with no effect
31 | G258A | with no effect
32 | E257K | decreasing interaction strength
33 | E257G | with no effect
34 | E250Q | decreasing interaction strength
35 | E250K | disrupting interaction strength
36 | Y345C | with no effect
37 | D246N | decreasing interaction strength

Variants of: B3
Details: with PTPN22, Q9Y2R2-1
Remark: another data set of the same source

Row | Variant | effect of a mutation on the interaction
38 | R228C | decreasing interaction strength
39 | E257G | decreasing interaction strength
40 | E250K | decreasing interaction strength

Variants of: B3
Details: with PTPN22, Q9Y2R2-1
Remark: another data set of the same source

Row | Variant | effect of a mutation on the interaction
41 | W232A | decreasing interaction strength

Variants of: B4
Details: with ptn12_human PTPN12, Q05209

Row | Variant | effect of a mutation on the interaction
42 | R228C | disrupting interaction strength
43 | Q219H | with no effect
44 | T274M | with no effect
45 | A230T | with no effect
46 | W232A | disrupting interaction strength
47 | E250K | disrupting interaction strength
48 | E250Q | decreasing interaction strength
49 | G258A | with no effect
50 | D266N | with no effect
51 | E257K | disrupting interaction strength
52 | E257G | with no effect
53 | D246N | with no effect
